From paper PMC9888711, “Pneumococcal capsule expression is controlled through a conserved, distal cis-regulatory element during infection” (PLOS Pathogens, 2023)
Where “and” joins values, the source holds several entries; their conditions need not be identical. Equal entries are not always repeated.

What was measured:
[1] = biological target: SpxR (SPD_0969), full-length recombinant (Streptococcus pneumoniae D39); experiment: SEC-MALS; Superdex 200 Increase 10/300 GL, 50 mM Tris-Cl pH 7.0, 500 mM NaCl, 1 mM TCEP, 70 uM, 25 C; no DNA
[2] = biological target: SpxR (SPD_0969), full-length recombinant (Streptococcus pneumoniae D39); experiment: SEC; Superose 6 Increase 10/300 GL, 50 mM Tris-Cl pH 7.0, 500 mM NaCl, 1 mM TCEP; 300 uL at 70 uM; calibrated with molecular weight standards
[3] = biological target: SpxR (SPD_0969), full-length recombinant (Streptococcus pneumoniae D39); experiment: negative stain electron microscopy; SpxR with 37-CE DNA in high salt (50 mM Tris pH 7.0, 500 mM NaCl, 1 mM TCEP); 3D reconstruction, C2 symmetry, 20.9 A
[4] = biological target: SpxR (SPD_0969), full-length recombinant (Streptococcus pneumoniae D39); experiment: negative stain electron microscopy; SpxR with 37-CE DNA in low salt (final 50 mM NaCl, HEPES pH 7.5, 5 mM MgCl2, 1 mM CaCl2); 3D reconstruction, C3 symmetry, 21.5 A
SpxR [5] = biological target: T1, SpxR (Streptococcus pneumoniae D39, UniProt A0A0H2ZR90 1-425); experiment: EMSA; shift begins at 312 nM protein; competed by unlabeled 37-CE; EMSA: 20 mM HEPES pH 7.2, 50 mM NaCl, 5 mM MgCl2, 1 mM CaCl2, 0.1 mM EDTA, 12% glycerol, 10 mM DTT, 0.5 uM DNA, 400 ng poly(dI-dC); FP: same salts, 2% glycerol, 10 nM DNA (high salt 500 mM NaCl; Fig 5 legend says Tris pH 7.0); temperature not stated; settings: protein: recombinant; tags: His6-SUMO removed by Ulp1; chain copies: 3; label: 6-FAM on forward strand 5' (EMSA, FP); blunt
CpsR [6] = biological target: T2, CpsR (Streptococcus pneumoniae D39, UniProt A0A0H2ZMA3 1-247); experiment: EMSA; shift begins at 625 nM protein; competed by unlabeled 37-CE; EMSA: 20 mM HEPES pH 7.2, 50 mM NaCl, 5 mM MgCl2, 1 mM CaCl2, 0.1 mM EDTA, 12% glycerol, 10 mM DTT, 0.5 uM DNA, 400 ng poly(dI-dC); FP: same salts, 2% glycerol, 10 nM DNA (high salt 500 mM NaCl; Fig 5 legend says Tris pH 7.0); temperature not stated; settings: protein: recombinant; tags: His6-SUMO removed by Ulp1; chain copies: 2; label: 6-FAM on forward strand 5' (EMSA, FP); blunt
SpxR [7] = biological target: T1, SpxR; experiment: fluorescence polarization; 50 mM NaCl; EMSA: 20 mM HEPES pH 7.2, 50 mM NaCl, 5 mM MgCl2, 1 mM CaCl2, 0.1 mM EDTA, 12% glycerol, 10 mM DTT, 0.5 uM DNA, 400 ng poly(dI-dC); FP: same salts, 2% glycerol, 10 nM DNA (high salt 500 mM NaCl; Fig 5 legend says Tris pH 7.0); temperature not stated; settings: protein: recombinant; tags: His6-SUMO removed by Ulp1; chain copies: 3; label: 6-FAM forward; blunt
CpsR [8] = biological target: T2, CpsR; experiment: EMSA; EMSA: 20 mM HEPES pH 7.2, 50 mM NaCl, 5 mM MgCl2, 1 mM CaCl2, 0.1 mM EDTA, 12% glycerol, 10 mM DTT, 0.5 uM DNA, 400 ng poly(dI-dC); FP: same salts, 2% glycerol, 10 nM DNA (high salt 500 mM NaCl; Fig 5 legend says Tris pH 7.0); temperature not stated; settings: protein: recombinant; tags: His6-SUMO removed by Ulp1; chain copies: 2; label: 6-FAM forward; blunt
SpxRDBD [9] = biological target: T3, SpxRDBD (Streptococcus pneumoniae D39, UniProt A0A0H2ZR90 1-63); experiment: EMSA; second to 5'+10; EMSA: 20 mM HEPES pH 7.2, 50 mM NaCl, 5 mM MgCl2, 1 mM CaCl2, 0.1 mM EDTA, 12% glycerol, 10 mM DTT, 0.5 uM DNA, 400 ng poly(dI-dC); FP: same salts, 2% glycerol, 10 nM DNA (high salt 500 mM NaCl; Fig 5 legend says Tris pH 7.0); temperature not stated; settings: protein: recombinant; tags: His6-SUMO removed by Ulp1; label: 6-FAM forward; blunt
SpxRDBD [10] = biological target: T3, SpxRDBD; experiment: EMSA; EMSA: 20 mM HEPES pH 7.2, 50 mM NaCl, 5 mM MgCl2, 1 mM CaCl2, 0.1 mM EDTA, 12% glycerol, 10 mM DTT, 0.5 uM DNA, 400 ng poly(dI-dC); FP: same salts, 2% glycerol, 10 nM DNA (high salt 500 mM NaCl; Fig 5 legend says Tris pH 7.0); temperature not stated; settings: protein: recombinant; tags: His6-SUMO removed by Ulp1; label: 6-FAM forward; blunt
[11] = biological target: the molecule itself; experiment: SEC; Superose 6 Increase 10/300 GL, 50 mM Tris-Cl pH 7.0, 500 mM NaCl, 1 mM TCEP; 300 uL at 70 uM; calibrated with molecular weight standards
SpxRDBD [12] = biological target: T3, SpxRDBD; experiment: EMSA; strongest of the extended truncations; EMSA: 20 mM HEPES pH 7.2, 50 mM NaCl, 5 mM MgCl2, 1 mM CaCl2, 0.1 mM EDTA, 12% glycerol, 10 mM DTT, 0.5 uM DNA, 400 ng poly(dI-dC); FP: same salts, 2% glycerol, 10 nM DNA (high salt 500 mM NaCl; Fig 5 legend says Tris pH 7.0); temperature not stated; settings: protein: recombinant; tags: His6-SUMO removed by Ulp1; label: 6-FAM forward; blunt

## SpxR (SPD_0969), full-length recombinant (natural protein)
[1]
  stoichiometry N: 4 and 8
[2]
  stoichiometry N: 4
[3]
  stoichiometry N: 4
[4]
  stoichiometry N: 3

B1: 37-CE (dsDNA)
DNA 1: TGTGTACTATATTATATTGAAACTAGAATAGTACACA
DNA 2: TGTGTACTATTCTAGTTTCAATATAATATAGTACACA
SpxR [5]
  binding result: binds
CpsR [6]
  binding result: binds

B2: 21-CE SpxR-only (dsDNA)
DNA 1: GTGTACTAGAGTAGTTTGAAA
DNA 2: TTTCAAACTACTCTAGTACAC
SpxR [7]
  Kd: 0.056 µM
CpsR [8]
  binding result: no binding

B3: 21-CE (dsDNA)
DNA 1: GTGTACTATATTATATTGAAA
DNA 2: TTTCAATATAATATAGTACAC
SpxR [7]
  Kd: 0.071 µM

B4: 37-CE 3'+10 (dsDNA)
DNA 1: TGAAACTAGAATAGTACACA
DNA 2: TGTGTACTATTCTAGTTTCA
CpsR [8]
  binding result: no binding
SpxRDBD [9]
  binding result: binds

B5: 21-CE CpsR-only (dsDNA)
DNA 1: GTGTGAGATATTATATTGAAA
DNA 2: TTTCAATATAATATCTCACAC
SpxR [7]
  Kd: 0.104 µM
SpxRDBD [10]
  binding result: no binding

B6: CpsR (SPD_0064), recombinant (natural protein)
chain: MEKENRGKNMAIPKYQYIKDELKNKIISGQFSSGDKFYTEAELISMYDVSSITVVRALNDLAKDGYIVRQQGKGTFVSRARKHKLVEFSDIELFNAKDDKVTVLSIERGNKLVYLEKLGLRGDQFYYKIERIRESNGVVYIYHTSYIPEQYINANYPNLEYYSSIYNRFKLDYHIHMNDEHFEEINEIVFPTPEHAASVLGVDEQFPTVLQTKITKLESTGQVLEYSETYKRSDYYKIKFISCDRDH
notes: CpsR (also called AgaR), transcription factor of Streptococcus pneumoniae D39, locus SPD_0064; 65.72 kDa as a dimer; cpsR amplified from D39 genomic DNA into pE-SUMO; also called AgaR; source: E. coli T7 Express lysY/Iq, purified (Ni-NTA, Ulp1 cleavage, SEC)
[11]
  stoichiometry N: 2

B7: 37-CE spacer (17 bp) (dsDNA)
DNA 1: ATTATATTGAAACTAGA
DNA 2: TCTAGTTTCAATATAAT
SpxRDBD [10]
  binding result: no binding
CpsR [8]
  binding result: no binding

B8: 21-CE Neither (dsDNA)
DNA 1: GTGTGAGAGAGTAGTTTGAAA
DNA 2: TTTCAAACTACTCTCTCACAC
SpxRDBD [10]
  binding result: no binding
CpsR [8]
  binding result: no binding

B9: 37-CE 5' (10 bp) (dsDNA)
DNA 1: TGTGTACTAT
DNA 2: ATAGTACACA
SpxRDBD [10]
  binding result: no binding
CpsR [8]
  binding result: no binding

B10: 37-CE 5'+10 (dsDNA)
DNA 1: TGTGTACTATATTATATTGA
DNA 2: TCAATATAATATAGTACACA
SpxRDBD [12]
  binding result: binds
CpsR [8]
  binding result: binds
